{"source": "the domain aggregation screens of Martell et al. (2025)"}
{"test": "soluble fraction after stress (log2 fold change); higher = more stays soluble; pooled small domains, quantitative proteomics", "settings": "stress: 75 degC"}
{"sequence": "HMLSDHGLNDRQIMVIAGLMNGGTVTVRSIESQYGVSLNTARADVKMLVDAGLLTETGREVNMKVYSWSGK", "soluble fraction (log2)": -2.05}
{"sequence": "HMLSDSDTLRDLYLSEQIWNVGDLIRVKGKNDDTHPSWEIIRRGTNYITAIDENYKSHKVWLHDIDI", "soluble fraction (log2)": -1.3}
{"sequence": "HMLSEKELLELLNRAKSNYNGITKKGIEAIALKYQGYSNVEIANLYHVKANHISAWISRARSRLKADY", "soluble fraction (log2)": 0.07}
{"sequence": "HMLSNLYAVLGVGRRATPDEITAAFDAWNARADAGEPIDDPLWERVRYAWDVLSSPSRRDLYDSLVDDATG", "soluble fraction (log2)": -1.74}
{"sequence": "HMLSSREEKILNYLNEHQIITRKKAQELLETSQSTAGRVLKIMVDNGLIVQYGGSRSIWYELIK", "soluble fraction (log2)": -1.79}
{"sequence": "HMLSTGIIIGDNVALRKTASSNGGIITRLDEGTVVKILASNVNAEWYQVEAGTKTGYVNRLYVNID", "soluble fraction (log2)": -1.07}
{"sequence": "HMLSTGQLIRYYRKRAGMTQAELAEEVEMSEPGIRNYELGNRTPSKAQLSAIARGLGIEPEALI", "soluble fraction (log2)": -0.63}
{"sequence": "HMLSVKEQTYQIIKEKILNQEYPAGARININELAEELGISNSPIREALSLLEQQGLVISNRSSGATVT", "soluble fraction (log2)": -0.176}
{"sequence": "HMLSVLKNVDVNSLSDDKIKTYWQQIQKSGYTLDEVEVLAEAQGISPLKIAAFKRRVQSLQQSLQT", "soluble fraction (log2)": 0.311}
{"sequence": "HMLSYDDTVVIGRNLLENAMKQKNIALEQLTDEVLARLAKELQVESVEAMYAGIGSGKRPSSFIINRLEAH", "soluble fraction (log2)": -0.75}
{"sequence": "HMLSYFKIIKNGLVREGPASYYKIAENLEIGTIVQAFEKHDDWYLIKTHSGRIGWIVASDVTPQV", "soluble fraction (log2)": -3.62}
{"sequence": "HMLTAHEAILKELRKMLLTGVLSPGEAVRPEIIGESFGVSAVPVREALRILEGEGQVLNRPHKGYVVT", "soluble fraction (log2)": -0.904}
{"sequence": "HMLTANPEEVVNRLTSAGEVGVRPLLDVDDPINAISTLLAIREDVYKQFAQFDTVGKSPSEIAHEIDDFL", "soluble fraction (log2)": 0.11}
{"sequence": "HMLTEERLQIITDTVNSRSSVTIAELSRILDVSPSTVKRDLNILAEAGKITKVRGGAIALGE", "soluble fraction (log2)": -0.285}
{"sequence": "HMLTGDVDRYKDFFIALEKTSPVPIGFEKIIGGAHGYYHLEDKRIAIDEGMSELQTLKTAIHEIAHAKLHD", "soluble fraction (log2)": -0.312}
{"sequence": "HMLTGNTAKLFAHLVEVMNPKEFVKINRQTVIVEAGIPRGSVGAAIAKLLETGHLIANASGAYKLT", "soluble fraction (log2)": 0.278}
{"sequence": "HMLTIEEYLTQLKKLMKDRDAATVRDALSDAEEHLRNAMAGEDPSRLDGIIEEYGSPEEIAAAYKIMEEHT", "soluble fraction (log2)": -0.082}
{"sequence": "HMLTIQNYFNQVKNIDWEQVPAALSKGHQLVEGASQNNWSAYHSNANIQRVVEAYFQKLNDYLEKN", "soluble fraction (log2)": -0.0425}
{"sequence": "HMLTKGDRQSIRDSIIYMVGNAPRTLDYIVAESRYSEEDVIEAVRSLLSSHILSIDDSDMISLTRK", "soluble fraction (log2)": -1.02}
{"sequence": "HMLTNNYKNDKALRFAKNHGIHESNILKLVSLYENAPEKGFNAQSIAELLGITPRSASRILVKLLQHNLIR", "soluble fraction (log2)": -1.8}
{"sequence": "HMLTPSRVLPYLFEDSFFIDTLSLEKDQVVGFLEYIDERLPPQDLMNKSKEFELIDYLINESEAYLSQ", "soluble fraction (log2)": -0.00122}
{"sequence": "HMLTQEEITRRRGEILTAAMGVILRKGFLETSMREIAEAAGVGKSTLYDYFPSKDEIMIAYVVD", "soluble fraction (log2)": -0.97}
{"sequence": "HMLTRYNVNYYYNGEILQRRKVAEGSAAERITYLSGSLEVTDWYTEADLLRKYDFTEPVTGDLNLYAFARI", "soluble fraction (log2)": -1.42}
{"sequence": "HMLTSAQLAEIRQAVRAGQASVVEDLLKNGASPNFRMENGDTGFTYAVRADTPQVAEALLKSGKL", "soluble fraction (log2)": -0.00532}
{"sequence": "HMLTTIRKATVNDKTRIMEIYAYARQFMAEHGNPNQWKNNNPSEETIDNDIAKQEMYVIETDGEVHAVFY", "soluble fraction (log2)": -1.64}
{"sequence": "HMLVDWNYLEGKRGVTTTPLTPSGKARFGDDVVNVLSDGVLVSTGTPVRVLQVLGNRVLVEPLDG", "soluble fraction (log2)": -0.21}
{"sequence": "HMLVGRDPQALILGSMPSEKSLEEDEYYAHPRNRFWSLMNWLLAGNKTRPAYKTGIEILSSHGIALWV", "soluble fraction (log2)": -0.358}
{"sequence": "HMLVIMKTGASEEEIGRVIERIEGEGLSAHVSRGTERTVIGVIGQGVDVHRIAGVLGGMSGVESLVPIS", "soluble fraction (log2)": 0.0604}
{"sequence": "HMLVLAENMDVIFTRRTLDDHVVVDYKTTIGEMVKNDEIKGENMDELISAVEKDGYELVSSTSGEIIFLND", "soluble fraction (log2)": -1.01}
{"sequence": "HMLVVEPSAELKTIIDKTASFVARNGPEFEARIKNEQNNAKFSFLQPNDPFNPYYRAKIVELGGTV", "soluble fraction (log2)": 0.0126}
{"sequence": "HMLVYQRLDKDNFIFEGKTLLNDIYKILDIESNYFEAIRGEADSIAGLLLEIAKSIPTINTEF", "soluble fraction (log2)": -0.362}
{"sequence": "HMLYEDVQVPNVRYWKSRDAKKQLEDLGLRVLTEHVNDAYIQSDQVIRTSPEIGDTLRTGDTVTLYVSDG", "soluble fraction (log2)": 0.163}
{"sequence": "HMMKLSKRQEQIIAVVKEHQPVSGERISDILAVSRATLRSDLSFLTLSGILKASPKVGYTYES", "soluble fraction (log2)": -3.4}
{"sequence": "HMMLVKKMLNGIMMKEITIKELADQYDVSTRTIQLKIKKLGYEWDSKESIYRYVGKESEPLDVDFSTLI", "soluble fraction (log2)": -3}
{"sequence": "HMMQEIKLEVINNEELRIDNYINLAGIGLSRSYIQKLIKDGVILVNGKEVKSSYKVSLGDIISVQIPDPG", "soluble fraction (log2)": -0.436}
{"sequence": "HMMVIMRANATEPQIANVVAYVEKNGLNAHLSRGAERTVIGVVGDIRRVSKETFELMDGVDSVMRIS", "soluble fraction (log2)": -0.631}
{"sequence": "HMNADKEALIAAAYRNSLIENFGTENVERYEERFNKWADKHDRQGMPMYPTIEKWMNEDNIA", "soluble fraction (log2)": 0.0631}
{"sequence": "HMNADRIVGQTAKVIHPITPDEKGRVMVDNLDWAAAAQNRGESFEVGEEVSIVRIEGVTVYVQK", "soluble fraction (log2)": -0.234}
{"sequence": "HMNADTVIGKAGTVIEKIDNVAATGAVKIDGKVWTARSERDNITIDEGTLVKAMAIEGVKLIVEPVT", "soluble fraction (log2)": 0.139}
{"sequence": "HMNAEGLIGREAVALTAVDAHGGRVRLGGEEWSARLSKENGGVSRLSVGDPVRVTDIDGAIAVVAP", "soluble fraction (log2)": 0.118}
{"sequence": "HMNAEQLAQVRRQKIGFIFQDFRLFPEYTVRDNILIPFYLDHRAPDEQMLHKLTGILGIAGKLHSRPAQL", "soluble fraction (log2)": -0.181}
{"sequence": "HMNAKVVAPIPGTVLSIDIKVGDVIKIGDRLLVLEAMKMENNIASEKSGTVTAVHVKVGQQVLQNELMIEL", "soluble fraction (log2)": -2.17}
{"sequence": "HMNALNDLESKIFEEVVKAPEIIMNMTIREFASTVHASPTTIVRMTHKLGFSGWNELKTYLQKQKHQIS", "soluble fraction (log2)": -1.72}
{"sequence": "HMNALREVNTSILNVRSGAGTNYSKIGSLTQATRVSVISESNGWSKINYNGKVGYVSSQYLS", "soluble fraction (log2)": -1.53}
{"sequence": "HMNAMKPVLTVSLGVHTDSLSRRLNEEGIIYRWQQAASEQLLLVDSESSSERIAELIHDWRLEQSSS", "soluble fraction (log2)": -0.0158}
{"sequence": "HMNANTILNSQRILTQLGFNPGPIDGAFGAKTKGALNAFYTSIGKSYDGLLDSNELVELQKALDVSGLKN", "soluble fraction (log2)": -0.524}
{"sequence": "HMNDADAHASVDAALKHLEALAETTPEVRAALELVRRGPDGRVTVDSFARVAEALREISIAVGAS", "soluble fraction (log2)": 0.024}
{"sequence": "HMNDELMEQIDEWHKAEKHQEIIDALEQIPEAERDFETTGFLARAYNNIEEYAKAADLLESVRE", "soluble fraction (log2)": 0.0973}
{"sequence": "HMNDGEIAAPVSGTLQSFKVEDGQTVSEGDLVAVMEAMKMETQILATKGGTIRLLVKEGDYLQAGHALMTI", "soluble fraction (log2)": -0.667}
{"sequence": "HMNDGTIRVGTNVTIKPSAKRWATGQNIYYGVKGKTYKVIQMNGNRLLLDKVISWINKGDVYVPGS", "soluble fraction (log2)": -0.741}
{"sequence": "HMNDIDRFIEALIEQDTLPGTNSRINEDVISEMKMMTSVEDIKAYAIATVGLTGGQVNNALINSGL", "soluble fraction (log2)": -0.072}
{"sequence": "HMNDIVKIYTTHRIINIEGLAKNEPIMLYTINGTLIDKSVSSNGSAQLHVKGIGVYLVKWANNIVKVIVPN", "soluble fraction (log2)": -4.81}
{"sequence": "HMNDLDSLWDIWENLNERGIGDKSEEGQELRDAIREFIDTNELNVRVTRNKTNEDLLTDIEDALEVAKNS", "soluble fraction (log2)": -0.588}
{"sequence": "HMNDLIFSTLAEYDRDTITEIISVVDNTRGIGYEVELVRKDLIAMAAQAEARRDYLPSVIGDVEVFKRNLL", "soluble fraction (log2)": 0.354}
{"sequence": "HMNDNQNKQMLWELLKDNRAFDNFDNKDYKTIIHLFNETVNTIDHRTPNLDLIKKNKIFIQDIMQKLSNL", "soluble fraction (log2)": -1.46}
{"sequence": "HMNDSGIIGVVINDHEKYEGHVLEDGFISSSLSALSREIDVAGYFMMVKTVVYEGFFQELKGIGNV", "soluble fraction (log2)": 0.16}
{"sequence": "HMNDTNEEAVLSIILKNPQATQGAIAKEVGASLSTVKRIMRNLQKSGKLRREGTNRNGSWVVTGQK", "soluble fraction (log2)": -0.289}
{"sequence": "HMNDTPPELRAALDLLGLKWPLASVELRARYKDLAKQHHPDATGGDKQAEERLKDINRAYSLLKHRLAKQ", "soluble fraction (log2)": -0.143}
{"sequence": "HMNDTVGMNIRRLRKERGMTQGDLADKAGIQRETISKYESNKLTPPSYNLESIEKALKVPAGTLAQ", "soluble fraction (log2)": 0.176}
{"sequence": "HMNDYIGVDRAKEIALNHARMNESDVQFAKAKLENDDGVVEYEIEFYFGRTEYDYTIDAVSGNIIEYDVEY", "soluble fraction (log2)": -1.86}
{"sequence": "HMNEDDQLLKVLLAEPLRLEELYNLDLKPQGPYNLQTWIMVHLTELERDGLIARFPDGRYGPAR", "soluble fraction (log2)": -2.03}
{"sequence": "HMNEFAYLIKISPEHNNNRYYRMVAEGDNFRIEMGRIGASPVQMKRPMYLWNETYQKKLQEGYTDRTSYTS", "soluble fraction (log2)": -1.85}
{"sequence": "HMNEIDLEAAKRIALQNAGVESADAAFTKAQLDYDDGVAEYEIEFVAGSTKYEYEISAANGTVLKSSKESV", "soluble fraction (log2)": -0.0387}
{"sequence": "HMNEIEIHINKLFGKISDSKRKQELMQEITQNLNEKVSDLVSQGQTREQAVKKAIEDFGDIDDLKDELDN", "soluble fraction (log2)": 0.312}
{"sequence": "HMNEIYHQIKVDNVSDDDISLFQYSGIEFDHADYRRGEYIEFAISNRDLSILNNLGYEYQVVHH", "soluble fraction (log2)": -0.872}
{"sequence": "HMNEKAALIFNEWSDFVSKDDEANAQIKFDELITLYKKTGYTKIALLEVATKQASNGDIEGALAKYSLLID", "soluble fraction (log2)": 0.128}
{"sequence": "HMNEKTGTLTVYSSPGWAKVYIDGEYKGITPVMANLTYGDHYVKLTLDGYDSIGNHIDVNSPDQSYTGKF", "soluble fraction (log2)": -0.768}
{"sequence": "HMNELIGVEQLQDLREAIADHGFAEQRVLNWLYQATKGQVSRLEQLPLPMLTTLHKKLGQWADAEAAASSA", "soluble fraction (log2)": 0.3}
{"sequence": "HMNELVEATITTQTGRLDKVLTTIFPQYSRSQIQQLLEQGNILVNETLQKGKYKVKAGDKISLTEPAIKE", "soluble fraction (log2)": 0.331}
{"sequence": "HMNEMSDTITRLLDAAETGIRLRGYHAVSFRDLAEELGIKSSSVHYYFRQKEDLGLAVVERY", "soluble fraction (log2)": 0.000622}
{"sequence": "HMNENDPRVIKTRRLLLDSFVVLVRKKDFTSISVKDITDSAQVNRATFYAHFQDKYDILEYMVID", "soluble fraction (log2)": 0.0912}
{"sequence": "HMNENNFIVAMRERLAQFIETSGTSQSRIAKELGVSKSTVSLFLGGTYGGNNQELARNLEQLLSMGAARR", "soluble fraction (log2)": -1.45}
{"sequence": "HMNEPMITEVKRINYGSIKEIAKNLDVFKGKNGTVIIDERTNTLILTDLSENIEKMLWSIEITD", "soluble fraction (log2)": -0.927}
{"sequence": "HMNERTKIPLRKIEIGQAVYVDTLEKVGTVIDIQGKQFKVDLAGLPITVAARNLFYPLPQEAKP", "soluble fraction (log2)": -0.736}
{"sequence": "HMNESADMPDVVNMSLEAAKSQLEGMGLKVKVENVEDDSVEENHVIKTSPVSGEKVKLGTTVTLTVSKGR", "soluble fraction (log2)": -0.116}
{"sequence": "HMNESEALIARIENLPPIEDLTEKHAEEVKALMTVYSKLKMSDRILVTNYGVLKKDFDALVKKGFLTNED", "soluble fraction (log2)": -0.321}
